{
  "source": "paper PMC5016661",
  "about": "(The Journal of Biological Chemistry, 2016)",
  "proteins": {"B1": {"name": "fragaceatoxin C (natural protein)", "chain": "ADVAGAVIDGAGLGFDVLKTVLEALGNVKRKIAVGIDNESGKTWTAMNTYFRSGTSDIVLPHKVAHGKALLYNGQKNRGPVATGVVGVIAYSMSDGNTLAVLFSVPYDYNWYSNWWNVRVYKGQKRADQRMYEELYYHRSPFRGDNGWHSRGLGYGLKSRGFMNSSGHAILEIHVTKA", "notes": "also called FraC; WT FraC; source: E. coli BL21 (DE3), purified (ion-exchange and size-exclusion chromatography)"}},
  "target": "the molecule itself",
  "assay": "cryo-EM structure; FraC (5 uM) incubated with DOPC LUVs at a protein/lipid ratio of 1:160 for 30 min; vitrified; 1,562 particles; oligomer bound to the vesicles (non-lytic, prepore)",
  "data": [
    {"protein": "B1", "values": [
      {"measurement": "stoichiometry N", "result": 8}
    ]}
  ]
}
